One block for each molecule: values may come before it.
Columns and labels:
[1] = biological target: type II flavin-containing monooxygenase from Janthinobacterium svalbardensis (Janthinobacterium svalbardensis PAMC27463); assay: SEC; size exclusion chromatography of purified JsFMO, with a calibration curve (Figure S2)
[2] = biological target: type II flavin-containing monooxygenase from Janthinobacterium svalbardensis (Janthinobacterium svalbardensis PAMC27463); assay: crystal structure; sitting-drop vapor diffusion in the cold room (4-8 °C); 16 mg/mL JsFMO, glycerol 20%, PEG 8000 13%, 100 mM Bis-Tris pH 6.5; four protomers forming two dimers in the asymmetric unit; FAD bound, no NADP+
purified protein [3] = substrate: NC(=O)C1=CN([C@@H]2O[C@H](COP(=O)(O)OP(=O)(O)OC[C@H]3O[C@@H](n4cnc5c(N)ncnc54)[C@H](O)[C@@H]3O)[C@@H](O)[C@H]2O)C=CC1; assay: purified protein; format: biochemical, Janthinobacterium svalbardense; details: 100 mM Tris-HCl pH 7.5, 500 mM NaCl, 10% glycerol, 1 mM DTT, 5 μM FAD, room temperature, co-substrate concentration not given
purified protein [4] = substrate: O=C1CC2C=CCC12; assay: purified protein; format: biochemical, Janthinobacterium svalbardense; details: 0.25 mM NADPH, 0.25-20 mM 1a, 100 mM Tris-HCl pH 7.5, 500 mM NaCl, 10% glycerol, 1 mM DTT, 5 μM FAD, room temperature
purified protein [5] = substrate: NC(=O)C1=CN([C@@H]2O[C@H](COP(=O)(O)OP(=O)(O)OC[C@H]3O[C@@H](n4cnc5c(N)ncnc54)[C@H](OP(=O)(O)O)[C@@H]3O)[C@@H](O)[C@H]2O)C=CC1; assay: purified protein; format: biochemical, Janthinobacterium svalbardense; details: 100 mM Tris-HCl pH 7.5, 500 mM NaCl, 10% glycerol, 1 mM DTT, 5 μM FAD, room temperature, co-substrate concentration not given

- stoichiometry N [1]: 2
- stoichiometry N [2]: 2
Molecule: type II flavin-containing monooxygenase from Janthinobacterium svalbardensis (enzyme)

B1: JsFMO (Janthinobacterium svalbardense) (protein)
chain: MQTDSNPHDLAVAGILEQLEGCLRASDSTGAAQLFEPDGYWRDLVLFTWNLKTLEGREQIAAMLAAQLGAVQPVSIRIADGEHAVEAGGVLQSWITVETNVARGVGFIRIRDGKIWTLLTTMSELKGFEEAKGGRRPMGAEHGARTDRSSWLEQREQEAKELGYARQPYCVIIGGGQGGIALGARLRQLNVPTIIIEKNARPGDSWRKRYKSLCLHDPVWYDHMPYIPFPDNWPVFTPKDKVGDWLEMYTKVMELNYWGSTSCESASFDAASGEWTVQVLRDGQPVTLKPKQLVLATGMSGKANMPKFKGMDVFQGEQQHSSQHPGPDAYAGKKVVVVGANNSAHDICAALWEAGVDVTMVQRSSTHIVKSDSLMDLALGDLYSERALAAGMTTNKADLTFASIPYKILANFQKPVFKAIRERDADFYARLEERGFMLDFGDDDSGLFMKYLRRGSGYYIDVGASELVAEGKIKLKSGVGVQELKSHSIVLSDGTELPADLVVYATGYGSMNGWAADLISPEVANKVGKVWGLGSATTKDPGPWEGEQRNMWKPTQQQALWFHGGNLHQSRHYSQYLSLQLKARMEGLNTPVYGQQEVHHLS
notes: full-length, codon-optimized in pET-28a(+)-TEV, E. coli ArcticExpress (DE3), C-terminal His-tag (stated for crystal structure); homodimer; SnoaL-like N-terminal domain, C-terminal helix residues 567-586
- Km (purified protein [3]): 78.5 ± 7.5 µM
- kcat (purified protein [3]): 0.23 ± 0.1 s^–1
- Km (purified protein [4]): 1050 ± 230 µM
- kcat (purified protein [4]): 0.29 ± 0.01 s^–1
- Km (purified protein [5]): 14.4 ± 2.5 µM
- kcat (purified protein [5]): 0.21 ± 0.1 s^–1
